Experimental data published in paper PMC7954794, “Protein context shapes the specificity of SH3 domain-mediated interactions in vivo” (Nature Communications, 2021).

Key:
Abp1 (1xFLAG) = experiment: Western blot expression level of Abp1 SH3-swapped baits (Fig. S2A-B); type: cell-based, Saccharomyces cerevisiae; parameters: Flag (2 bands): unit not given here; settings: sheet FigS2A-B
Procedure, shortened: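 Yeast expressing DHFR F[1,2]-FLAG-tagged baits grown in synthetic complete medium at 30 °C to OD600 ~1.0, lysed with glass beads in Tris pH 7.4/150 mM NaCl/1% Triton X-100. Baits immunoprecipitated on FLAG-M2 beads 120 min at 4 °C, resolved on 10% SDS-PAGE, probed with anti-FLAG HRP (ECL), signals quantified by imager.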

[1] = tested on: growth of yeast strains under 51 stress conditions; experiment: Growth assays in 51 stress conditions (Fig. 1E-F, S2D, S5B); type: cell-based, Saccharomyces cerevisiae; parameters: key to Growth (Fig. S2D) / growth of ABP1 SH3-swapped strains in stress condition: log2 colony size, average of median per strain (growth score); settings: for Growth (Fig. S2D): ABP1 SH3-swapped strains
Procedure, shortened: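 Yeast WT, SH3-deleted, KO, SH3-swapped and SH3-shuffled strains pinned in 1536 format, 12 replicates each; pregrown on YPD 2 days at 30 °C, then replicated onto 51 media at 37 °C and imaged every 2 h. Growth score = mean of per-plate median log2 colony size at 74 h.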

B1: BBC1: yeast SH3-containing protein; SH3-deleted or knockout strain (protein, UniProt P47068 1-1157, looked up)
Myosin tail …: MSEPEVPFKVVAQFPYKSDYEDDLNFEKDQEIIVTSVEDAEWYFGEYQDSNGDVIEGIFPKSFVAVQGSEVGKEAESSPNTGSTEQRTIQPEVEQKDLPEPISPETKKETLSGPVPVPAATVPVPAATVPVPAATAVSAQVQHDSSSGNGERKVPMDSPKLKARLSMFNQDITEQVPLPKSTHLDLENIPVKKTIVADAPKYYVPPGIPTNDTSNLERKKSLKENEKKIVPEPINRAQVESGRIETENDQLKKDLPQMSLKERIALLQEQQRLQAAREEELLRKKAKLEQEHERSAVNKNEPYTETEEAEENEKTEPKPEFTPETEHNEEPQMELLAHKEITKTSREADEGTNDIEKEQFLDEYTKENQKVEESQADEARGENVAEESEIGYGHEDREGDNDEEKEEEDSEENRRAALRERMAKLSGASRFGAPVGFNPFGMASGVGNKPSEEPKKKQHKEKEEEEPEQLQELPRAIPVMPFVDPSSNPFFRKSNLSEKNQPTETKTLDPHATTEHEQKQEHGTHAYHNLAAVDNAHPEYSDHDSDEDTDDHEFEDANDGLRKHSMVEQAFQIGNNESENVNSGEKIYPQEPPISHRTAEVSHDIENSSQNTTGNVLPVSSPQTRVARNGSINSLTKSISGENRRKSINEYHDTVSTNSSALTETAQDISMAAPAAPVLSKVSHPEDKVPPHPVPSAPSAPPVPSAPSVPSAPPVPPAPPALSAPSVPPVPPVPPVSSAPPALSAPSIPPVPPTPPAPPAPPAPLALPKHNEVEEHVKSSAPLPPVSEEYHPMPNTAPPLPRAPPVPPATFEFDSEPTATHSHTAPSPPPHQNVTASTPSMMSTQQRVPTSVLSGAEKESRTLPPHVPSLTNRPVDSFHESDTTPKVASIRRSTTHDVGEISNNVKIEFNAQERWWINKSAPPAISNLKLNFLMEIDDHFISKRLHQKWVVRDFYFLFENYSQLRFSLTFNSTSPEKTVTTLQERFPSPVETQSARILDEYAQRFNAKVVEKSHSLINSHIGAKNFVSQIVSEFKDEVIQPIGARTFGATILSYKPEEGIEQLMKSLQKIKPGDILVIRKAKFEAHKKIGKNEIINVGMDSAAPYSSVVTDYDFTKNKFRVIENHEGKIIQNSYKLSHMKSGKLKVFRIVARGYVGW
Ratio Swap/WT Flag (Abp1 (1xFLAG); Flag signal relative to Abp1 WT (Abp1-1 to Abp1-4 = 1)): 0.7943 | Flag (2 bands) (Abp1 (1xFLAG); Western blot Flag signal (2 bands), Abp1 WT, SH3-deleted or SH3-swapped): 76893 | relative_to_wt, D_minus_WT ([1]; Bathophenanthroline 0.1uM, D = SH3 deletion (all SH3s deleted for multi-SH3 proteins), log2 colony size, 74 h at 37 °C, n = 12): -0.7326 | relative_to_wt, KO_minus_WT ([1]; Bathophenanthroline 0.1uM, KO = gene deletion, log2 colony size, 74 h at 37 °C, n = 12): -0.7845 | Growth (Fig. S2D) ([1]; Bathophenanthroline.0.1uM): 10.8555 | Growth (Fig. S2D) ([1]; Bathophenanthroline.10uM): 10.7329 | Growth (Fig. S2D) ([1]; Bathophenanthroline.1uM): 10.8406 | Growth (Fig. S2D) ([1]; CaCl2.100mM): 10.8635 | Growth (Fig. S2D) ([1]; CaCl2.250mM): 10.7473 | Growth (Fig. S2D) ([1]; CaCl2.500mM): 10.2321 | Growth (Fig. S2D) ([1]; Caffein.10mM): 10.0361 | Growth (Fig. S2D) ([1]; Caffein.2mM): 11.0328 | Growth (Fig. S2D) ([1]; CdCl2.100uM): 9.446 | Growth (Fig. S2D) ([1]; CdCl2.10uM): 10.9111 | Growth (Fig. S2D) ([1]; CdCl2.50uM): 9.87 | Growth (Fig. S2D) ([1]; CuSO4.1mM): 10.4195 | Growth (Fig. S2D) ([1]; CuSO4.5mM): 7.7318 | Growth (Fig. S2D) ([1]; Cycloheximide.0.05.uM): 11.1604 | Growth (Fig. S2D) ([1]; Cycloheximide.0.2.uM): 10.7217 | Growth (Fig. S2D) ([1]; Cycloheximide.0.5.uM): 10.1165 | Growth (Fig. S2D) ([1]; DMSO.2.): 11.0262 | Growth (Fig. S2D) ([1]; DMSO.6.): 9.821 | Growth (Fig. S2D) ([1]; DMSO.8.): 9.042 | Growth (Fig. S2D) ([1]; Ethanol.2.): 10.863 | Growth (Fig. S2D) ([1]; Ethanol.6.): 10.43 | Growth (Fig. S2D) ([1]; Ethanol.8.): 10.2184 | Growth (Fig. S2D) ([1]; Galactose.2.): 10.7901 | Growth (Fig. S2D) ([1]; Glycerol.2.): 9.731 | Growth (Fig. S2D) ([1]; Hydroxyurea.25mM): 10.7777 | Growth (Fig. S2D) ([1]; Hygromycin.190uM): 11.0445 | Growth (Fig. S2D) ([1]; Hygromycin.19uM): 11.0769 | Growth (Fig. S2D) ([1]; Hygromycin.95uM): 11.0543 | Growth (Fig. S2D) ([1]; MMS.0.004.): 10.9787 | Growth (Fig. S2D) ([1]; MMS.0.02.): 10.743 | Growth (Fig. S2D) ([1]; MMS.0.04.): 9.98 | Growth (Fig. S2D) ([1]; Menadione.100uM): 10.5737 | Growth (Fig. S2D) ([1]; Menadione.200uM): 10.4364 | Growth (Fig. S2D) ([1]; Menadione.50uM): 10.8865 | Growth (Fig. S2D) ([1]; NaCl.0.25M): 10.7759 | Growth (Fig. S2D) ([1]; NaCl.1M): 9.566 | Growth (Fig. S2D) ([1]; Nitroquinoline.10uM): 10.676 | Growth (Fig. S2D) ([1]; Nitroquinoline.50uM): 10.6106 | Growth (Fig. S2D) ([1]; Nystatin.0.01uM): 10.9601 | Growth (Fig. S2D) ([1]; Nystatin.0.1uM): 11.003 | Growth (Fig. S2D) ([1]; Raffinose.2.): 11.0344 | Growth (Fig. S2D) ([1]; Rapamycin.10nM): 9.767 | Growth (Fig. S2D) ([1]; Rapamycin.50nM): 9.406 | Growth (Fig. S2D) ([1]; SC.pH3): 10.4328 | Growth (Fig. S2D) ([1]; SC.pH6): 11.0565 | Growth (Fig. S2D) ([1]; SDS.0.01.): 11.0008 | Growth (Fig. S2D) ([1]; SDS.0.02.): 11.0385 | Growth (Fig. S2D) ([1]; SDS.0.05.): 10.9076 | Growth (Fig. S2D) ([1]; Sorbitol.10mM): 11.0218 | Growth (Fig. S2D) ([1]; Sorbitol.1mM): 10.99 | Growth (Fig. S2D) ([1]; Sorbitol.5mM): 10.8909
